Experimental findings from the nanobody polyreactivity screen of Harvey et al. (2022) are described below.

A short description of the data set: yeast display, Sf9 membrane polyspecificity reagent, FACS + sequencing; frameworks hold sequencing errors. Put shortly:
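After 36–48 hours of galactose induction, yeast (Saccharomyces cerevisiae BJ5465) displaying a synthetic nanobody library were stained at 4 °C for 1 hour with 10% biotinylated, detergent-solubilized Sf9 membrane reagent. Streptavidin microbeads enriched the stained cells before FACS sorting into low and high (top ~1%) gates on anti-HA and streptavidin fluorescence. Each clone's polyreactivity label reflects its gate of origin.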
Regarding “QVQLVESGGRLVQAGGSLRLSCAASGSTFQYNAMGWYRQAPGKERELVAAISLSGGSTYYADSVKGRFTISRDNAKNRVYLQMNSLKPEDTAVYYCAARQWYRYKVRFDYWGQGTQVTVSS”, the “polyreactivity (PSR sort gate)” value was “high polyreactivity”.

For “QVQLVESGGRLVQAGGSLRLSCAASGSTIYGYAMGWYRQAPGKERELVATIRSGGSTYYADSVKGRFTISRDNAKNTVYLQMNCLIPEDTAVYYCAAKRWRGYGGGYSWGQGTQVTVSS”, the “polyreactivity (PSR sort gate)” value was “high polyreactivity”.

For the sequence “QVQLVESGGRLVQAGGSLRLSCAASGSTLFAYAMGSYRQAPGKETELVASISSGGNTNYADSVKGRFTISRDNSKNSVYLQMYSLKPEDTAVYYCNAGVPYHYPSYTYLYYYWGQGTQVTVSS”, the “polyreactivity (PSR sort gate)” value was “low polyreactivity”.

“QVQLVESGGRLVQAGGSLRLSCAASGYIFFHYSRGWYRQAPGTERELVAANTSGGSTNYADSVKGRFTMSRDNAKNTDYLQMNSLKPEDTAVYYCAARGWINSKRLYALWGFDYWGQGTQVTVSS”: the “polyreactivity (PSR sort gate)” value was “low polyreactivity”.

Regarding “QVQLVESGGRLVQAGGSLRLSCAPSGIILSLYAMGWYRQAPGKVRELVATIRFSGVSTYYADSVKGRFTISRDNAKNTLYLQLTSLKPEDTAVYYCNKHLATTFTVSRFDYWGQGTQVTVSS”, the “polyreactivity (PSR sort gate)” value is recorded as “low polyreactivity”.

Take “QVQLVESGGRLVQAGGSLRLSCAPSGRIFQPNVMGWSRQAPGKERELVAAIRSGSSTYYADSVKGRFTISRDNAKYSVYLQMNSLKPEDTAVYYCAARLFLPGYTRVNYLGQGTQVTVSS”: the “polyreactivity (PSR sort gate)” value is given as “high polyreactivity”.

For “QVQLVESGGRLVQAGGSLRLSCAPSGRTLGRYTMGWYRQAPGKERELVAGISSGGSTNYADSVKGRFTISRDNAKNTVYLQMNSLKPEDTAVYYCNSRGYSYGARYYYWGQGTQVTLSS”, the “polyreactivity (PSR sort gate)” value was “high polyreactivity”.

Turning to “QVQLVESGGRLVQAGGSLRLSCDASGRTSRRNAMGWYRQAPGKERELVAGITWRGGSTYYADSVKGRFTISRDNAKNTVYLQMNSLKPEDPEVYYCAAYTYPHEYDYWGQGTQVTVSS”, the “polyreactivity (PSR sort gate)” value is reported as “low polyreactivity”.

For “QVQLVESGGRLVQAGGSLRLSCDASGSIFAYYAMGGYRQAPGKERELVAAMCSGGGTYYADSVKGRFTISRDKAKTTVYLQMNSLKPEDTAVYYCAADGLWHIFYPGTGVDYWGQGTQVTVSS”, the “polyreactivity (PSR sort gate)” value is “low polyreactivity”.

Regarding “QVQLVESGGRLVQAGGSLRLSCPASGIIRGTNAMGGYRQAPGKERELVASITSGAGITYYADSVKGRFTISRDNAKNTVYLQMNSLKPEDTAVYYCNTYPYLWGQGTQVTVSS”, the “polyreactivity (PSR sort gate)” value is reported as “low polyreactivity”.

Turning to “QVQLVESGGRLVQAGGSLRLSCPDSGSTFILNAMGWYRQAHGKERELVATISSSVTSTYYADSVKWRFTISRDHAKNTVYLQMNSLKPEDTAVYYCNADYYTTSYLQRFYHYGVEYDYLGQGTQVTVSS”, the “polyreactivity (PSR sort gate)” value was “low polyreactivity”.

On to “QVQLVESGGRLVQAGGSLRLSGAASGIIFRTNAMGWSRQAPGKEREFVAAISAGGTRTYYADSVKGRFTISRDYAKNTVYLQMNSLKPEDTAVYFCAAASGYDYWGQGTQVTVSS”, for which the “polyreactivity (PSR sort gate)” value was “high polyreactivity”.

Take “QVQLVESGGRLVQAGGSLRLSSAPSGSIFFWYAMGWYRQAPGKERELVAAITQRTGSTYYADSVKGRFTISRDNAKNTVYLQMNSLKPEDTAVYYCAAKRLRRSFTGNYWGQGTQVTVSS”: the “polyreactivity (PSR sort gate)” value was “high polyreactivity”.

As for “QVQLVESGGRLVQAGGSLRLTCAASGRIFSVNAMGWYRQAPGKERELVAAITPGASTNYADSVKGRFTISRDNAKNTVYLQMTSLKPEDTAVYYCAAGWVSFEDWVLGSYYEYDYWGQGTHVTVSS”, the “polyreactivity (PSR sort gate)” value is recorded as “low polyreactivity”.

Regarding “QVQLVESGGRLVQAGGSLRLTCAASGSTFIIYAIGWSRQAPGQERELVAASTSGGSTYYADSVKGRFRISRDNAKNSVYLQMNSLKQEDTAVYYCAARAWRGSFRDGYWGQGTQVTVSS”, the “polyreactivity (PSR sort gate)” value is on record as “high polyreactivity”.

Take “QVQLVESGGRLVQAGGSLSLSCAASGIILLHYAMGWYRQAPGKERELVAAISSSGGRTYYADSVKGRFTISRDTAKITFYLQLTSLKPEDTAVYYCNTLTRLVYDGMGYWGQGTQVTVSS”: the “polyreactivity (PSR sort gate)” value is “high polyreactivity”.

Regarding “QVQLVESGGRLVQARGSLRLSCAPSGSIFYSNAMGSYRQAPGKEREFVAGIRSGGITNYADSVKGRFTISRDNAKNTVYLQMTSLKPEDTAVYYCAKLKDHGRYAYAFDYWRQGTQVTVSS”, the “polyreactivity (PSR sort gate)” value is listed as “low polyreactivity”.

For the sequence “QVQLVESGGRLVQAVGRLRLSCAASGFIFSRYAMRWYRPAPGKERELVAVISYSGGITYYADSVKGRFTISRDNAKNTVYLQMNSLKPEDTAVYYCAVGGTPRYSKYDYWGQGTQVTVSS”, the “polyreactivity (PSR sort gate)” value is on record as “low polyreactivity”.

In the case of “QVQLVESGGRLVQEGGSLRLSCAASGSSLRSYAMGRYRQAPGKERELLAAISGSGDSTYYADSVKGRFTISRDNAKNTVYLQMNSLKPEDTAVYYCNAVFAFNGYVYWGQGTQVTVSS”, the “polyreactivity (PSR sort gate)” value is listed as “low polyreactivity”.

In the case of “QVQLVESGGRLVQEGGSLRLSCAASGSTFKQYAMGWYRQAPGKEWELVAAISRSGSRTYYADSVKGRFTISRDNAKYTVYLQMNSLKPEDTAVYYCAAERRSTAGWLYDYWGQGTQVTVSS”, the “polyreactivity (PSR sort gate)” value was “high polyreactivity”.

Consider “QVQLVESGGVIFQAGGILRLICAASGRIFARNAMGWYRQAPGKERELVAAISRSGGPTYYADSVKGRFTISRDNAKNSVYLQMNSLKTEDTGVYYCAADHYPWWAWEFDYWGQGTQVTVSS”, for which the “polyreactivity (PSR sort gate)” value was “low polyreactivity”.

As for “QVQLVESGGVLGQAGGSLRLSCAASGFIFSTYTMAWYRPAPGKERDLVAAISRSGGRTYYADSVKGRFTISRDNAKYTVYLQMNSLKPEDTAVYYCNAAKGGRYPDYDYWGQGTQVTVSS”, the “polyreactivity (PSR sort gate)” value is listed as “high polyreactivity”.

For “QVQLVESGGVLVQAGASLRLSCAASGFTFGFYGMGWYRQAPGKERELVARITWRSGSTYYADSVKGRFTISRDNAKNTVYLQMNSLKPEDTAVYYCNKVPSYDFLGMDYWGLGTQVTVSS”, the “polyreactivity (PSR sort gate)” value is listed as “low polyreactivity”.

Consider “QVQLVESGGVLVQAGASLRLSCAASGITFVTYAMGWYRQAPGKERELVADISSSGGSSYYADSVKGRFTISLDNAKNTVYLQMNSLKPEDTAVYYWAALATFYPEFDYWGQGTQVTVSS”, for which the “polyreactivity (PSR sort gate)” value is reported as “low polyreactivity”.

Regarding “QVQLVESGGVLVQAGCSLRLSCASSGITFKYYAMGRYSQAPGKEREFVAYISARGGGTYYADSVKGRFTISRDNAKNSVYLQMNSLKPEDYAVYYFNAGLIYHQLYSNLYDYWGQGTQVTVSS”, the “polyreactivity (PSR sort gate)” value is “high polyreactivity”.

As for “QVQLVESGGVLVQAGGILRLSCAASGRIFYGNTMGWYRQAHGKERELVAAISRSGGSTYYADSVKGRFTSSRDNAKNTVYLQMNSLKPEDTAVYYCAAKRSWGYDYWGLGTQVTVSS”, the “polyreactivity (PSR sort gate)” value is recorded as “high polyreactivity”.

As to “QVQLVESGGVLVQAGGILRLSCAASGSIFYMYAMGWYRQAPGKERELVAAISRSGGRTYYADSVKGRFTISRDNAKNTVYLQMNSLKPEDTAVFYCAARDHYSTGGMKYWGQGTQVTVSS”, the “polyreactivity (PSR sort gate)” value is “high polyreactivity”.

In the case of “QVQLVESGGVLVQAGGSIRLSCAASGSTSYIYVMGWYRQAPGKERELVATISKNGGDTYADSVKGRFTISRDNAKNTVYLQMNSLKPEDTAVYYCNARAFRYNRRISSRYNYWGQGTQVTVSS”, the “polyreactivity (PSR sort gate)” value was “high polyreactivity”.

“QVQLVESGGVLVQAGGSLRISCAASGNTFVHYAMGWYRQAPGKEREFVAAISSSGGSTYYADSVKGRFTISRDNAKNTVYLQMNSLKPEDTAVYYCAAGGWPYSGGWFFQPNYDYWGQGTQVTVSS”: the “polyreactivity (PSR sort gate)” value is reported as “low polyreactivity”.

Regarding “QVQLVESGGVLVQAGGSLRLSCAASARIFAYSVMGWYRQAPGKEREFVAAISWSGGRTYYAHSVKGRFTISRDNAKNTVYLQMNSLKPEDTAVYYCNAGRPLWLAYGMDYWGQGTQVTVSS”, the “polyreactivity (PSR sort gate)” value is “low polyreactivity”.

Turning to “QVQLVESGGVLVQAGGSLRLSCAASGFTFAKNAMGWYRQAPGKERELVATISRSGGSTYYADSVKGRFTISRDKAKNTVYLQMNSLKPEDTAVYYCNKKYKYLYDYWGQGTQVTVSS”, the “polyreactivity (PSR sort gate)” value is “high polyreactivity”.

With “QVQLVESGGVLVQAGGSLRLSCAASGFTFVAYTMGWYRQAPGKDRELVASIPNVGSTNYADSVKGRFTISRDKAMNTVYLLMNSLKPEDTAVYYCAAEYLGWHYLYLPFRDYDSWGQGTQVTVSS”, the “polyreactivity (PSR sort gate)” value is “low polyreactivity”.

As to “QVQLVESGGVLVQAGGSLRLSCAASGFTFWDYAMGWYRHAPGKERELVAAISDNDGSTDYADSVKGRFTISRDNAKNTVYLQMNSLKPEDTAVYYCNAEIELPSKEGDYWGQGTQVTVSS”, the “polyreactivity (PSR sort gate)” value is “low polyreactivity”.

On to “QVQLVESGGVLVQAGGSLRLSCAASGGTFGVYTMGWYRQSPGKERDLVAAISWSGGSTYYADSVKGRFRISRDNAKNTVYLQINSLKPEDTAVYYCAARLKYGRIGVDHWGQGTQVTVSS”, for which the “polyreactivity (PSR sort gate)” value is listed as “high polyreactivity”.

For the sequence “QVQLVESGGVLVQAGGSLRLSCAASGRIFDRNAMGWYRQAPGKERELVAAIDDSGGDTSYADSVKGRFTISRDNAKNTVYLQMNSLKPEDTAVYYCNAGYADFVTYPRYYYWGQGTQVTVSS”, the “polyreactivity (PSR sort gate)” value is “low polyreactivity”.

Turning to “QVQLVESGGVLVQAGGSLRLSCAASGRIFYNYGMGWYIQAPGKERELVARITTGGRTNYADSVKGRFTISRDNAKNTVYLQMNSLKPEDTAVYYCNADGYHSRWYYYNYDYWGQGTQVTVSS”, the “polyreactivity (PSR sort gate)” value is on record as “low polyreactivity”.

Turning to “QVQLVESGGVLVQAGGSLRLSCAASGRTFDRYAMGWYRQAPGKERELVAAITWSGGRTYYADSVKGRFTISRDNAKNTVYLHMNSLKPEDTAVYYCAADNSYRGYHSPYDYWGQGTQVTVSS”, the “polyreactivity (PSR sort gate)” value is given as “low polyreactivity”.

“QVQLVESGGVLVQAGGSLRLSCAASGRTFGWYAMGWYRQAPGKERELVAAITWRGGSTYYADSVKGRFTISRDNAKNTVYLQMNILKPEDTAVYYCAAAAEKRSYYWGQGTQVTVSS”: the “polyreactivity (PSR sort gate)” value is recorded as “high polyreactivity”.

For the sequence “QVQLVESGGVLVQAGGSLRLSCAASGSIFDWYVMGWYRQAPGKERELVAAITSTGSTYYADSVKGRFTISLDNAKNTVYLQMNSLKPEDTAVYYCATSFYVYPSYYIMDYWGQGTQVTVSS”, the “polyreactivity (PSR sort gate)” value is on record as “low polyreactivity”.

Take “QVQLVESGGVLVQAGGSLRLSCAASGSIFILYAMGWYRQAPGKEREFVAAITYRGGSTKYADSVKGRFTISRDNAKNNVYLQMNRLKPEDTAVYYCAAGGYWRSPWGSVSRYGYWGQGTQVTVSS”: the “polyreactivity (PSR sort gate)” value is given as “high polyreactivity”.

Regarding “QVQLVESGGVLVQAGGSLRLSCAASGSIFILYAMGWYRQAPGKERELVAAISSTGTTYYADSVKGRFTISRDNAKNTVYLQMNSLKPEDTAVYYCATDEHSSGRTPYDYWGQGTQVTVSS”, the “polyreactivity (PSR sort gate)” value is “low polyreactivity”.
